From doi:10.1101/2020.04.29.065136

How the values were obtained:
[1] = target: SNAP25 (mouse (endogenous in mouse brain synaptosomes)) (UniProt P60879); assay: affinity purification with mass spectrometry
[2] = target: SNAP25 (mouse (endogenous in mouse brain synaptosomes)) (UniProt P60879); assay: co-IP

UniProt P60879, sequence (P60879 whole entry): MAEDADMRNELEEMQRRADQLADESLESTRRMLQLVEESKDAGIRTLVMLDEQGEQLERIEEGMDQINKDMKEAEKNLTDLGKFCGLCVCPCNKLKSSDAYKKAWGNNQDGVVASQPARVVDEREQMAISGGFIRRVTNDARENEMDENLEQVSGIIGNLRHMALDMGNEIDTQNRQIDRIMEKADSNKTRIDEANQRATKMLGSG

Substance | fold increase of the interaction upon epi stimulation against the basal state [1] | amount pulled down with SNAP25 per half brain [2]
Gβ1 (from UniProt P62874 1-340) (natural protein) | 10 fold | –
Gβγ (from UniProt P62874 1-340; P63216 1-75) (complex) | – | 1 µg
